# Experimental data: paper PMC7473639, “Functionally distinct roles for T and Tbx6 during mouse development”
# T1: Tbx6-DBD (T-domain) (mouse, UniProt P70327 90-277)
# T1 sequence: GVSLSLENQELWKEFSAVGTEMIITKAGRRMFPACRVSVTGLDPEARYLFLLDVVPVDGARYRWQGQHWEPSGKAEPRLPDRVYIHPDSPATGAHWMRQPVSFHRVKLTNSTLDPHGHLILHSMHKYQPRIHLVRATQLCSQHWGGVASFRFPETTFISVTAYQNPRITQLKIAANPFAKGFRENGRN
# T2: T-DBD (Brachyury T-domain) (mouse, UniProt P20293 41-224)
# T2 sequence: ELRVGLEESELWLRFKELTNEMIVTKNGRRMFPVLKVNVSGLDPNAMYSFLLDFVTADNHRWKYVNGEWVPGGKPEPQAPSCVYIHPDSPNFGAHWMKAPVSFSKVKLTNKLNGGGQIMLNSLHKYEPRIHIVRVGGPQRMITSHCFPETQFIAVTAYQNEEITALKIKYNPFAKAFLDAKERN
# B1: Dll1 BS2 (dsDNA)
# DNA 1: TCCCGAGGTGTGATTCTTGGA
# DNA 2: TCCAAGAATCACACCTCGGGA
# B2: Dll1 BS1 (dsDNA)
# DNA 1: TCACTGTAGGTGTTGCTGTCCTGT
# DNA 2: ACAGGACAGCAACACCTACAGTGA
# Assays:
# [1] = target: T1, Tbx6-DBD (T-domain); assay: quantitative EMSA; Hill coefficient 3.18; 25 mM HEPES pH 7.4, 75 mM NaCl, 1 mM DTT, 0.25 mM EDTA, 0.1% NP-40, 1 mM MgCl2, 10% glycerol, 10 µg/ml BSA, 0.1 mg/ml poly dI-dC; room temperature, 20 min (1 h); conditions: protein: recombinant; tags: N-terminal His (pET151/D-TOPO); Methods: removed by TEV; label: 32P 5' end label; blunt (annealed; only one strand given)
# [2] = target: T2, T-DBD (Brachyury T-domain); assay: quantitative EMSA; Hill coefficient 14.42; 25 mM HEPES pH 7.4, 75 mM NaCl, 1 mM DTT, 0.25 mM EDTA, 0.1% NP-40, 1 mM MgCl2, 10% glycerol, 10 µg/ml BSA, 0.1 mg/ml poly dI-dC; room temperature, 20 min (1 h); conditions: protein: recombinant; tags: N-terminal His (pET151/D-TOPO), removed by TEV; chain copies: 2; label: 32P 5' end label; blunt (annealed; only one strand given)
# [3] = target: T1, Tbx6-DBD (T-domain); assay: quantitative EMSA; Hill coefficient 2.97; 25 mM HEPES pH 7.4, 75 mM NaCl, 1 mM DTT, 0.25 mM EDTA, 0.1% NP-40, 1 mM MgCl2, 10% glycerol, 10 µg/ml BSA, 0.1 mg/ml poly dI-dC; room temperature, 20 min (1 h); conditions: protein: recombinant; tags: N-terminal His (pET151/D-TOPO); Methods: removed by TEV; label: 32P 5' end label; blunt (annealed; only one strand given)
Binder,Kd [1],Kd [2],Kd [3]
B1,1300 nM,13900 nM,
B2,,,1530 nM
